# B1: 全人单克隆抗体17-2 (antibody, V domains shown)
# VH: QLQLQESGPGLVKASETLSLTCTVSSGSVSSDSYYWSWIRQPPGKGLEWIGYIYYSGSTNYNPSLKSRVTMSVDTSKNQFSLKLDSVTAADTAAYYCARGPLGLYYYYMDVWGKGTTVTVSS
# VL: DIQMTQSPSSLSASVGDRVTITCRASQSINNYLNWYQQKPGKAPKLLIYAASSLQSGVPSRFSGSGSGTDFALTISGLQPEDFATYYCQESNSSPFTFGPGTKVDIK
# notes: also called 17-2抗体
# Assays:
# SARS-CoV-2 S1蛋白 = molecular target: T1, SARS-CoV-2 S1蛋白 (SARS-CoV-2, UniProt P0DTC2 16-685); test: ELISA
# T1 construct: domain: S1
# SARS-CoV-2 S蛋白 [1] = molecular target: T2, SARS-CoV-2 S蛋白 (SARS-CoV-2, UniProt P0DTC2 16-1213); test: cell-based or functional assay
# SARS-CoV-2 S蛋白 [2] = molecular target: T2, SARS-CoV-2 S蛋白; test: ELISA, antibody on S protein
# SARS-CoV-2 S2蛋白 = molecular target: T3, SARS-CoV-2 S2蛋白 (SARS-CoV-2, UniProt P0DTC2 686-1213); test: ELISA, antibody on S2 protein
# T3 construct: domain: S2
binder,measurement,setting,value
B1,binding result,SARS-CoV-2 S1蛋白,no binding
same,假病毒中和实验 IC50,SARS-CoV-2 S蛋白 [1],0.587 µg/mL
same,EC50,SARS-CoV-2 S蛋白 [2],0.034 µg/mL
same,EC50,SARS-CoV-2 S2蛋白,0.038 µg/mL

# From patent CN112661841A (GUANGZHOU 8TH PEOPLES HOSPITAL, dated 2021)
